Assay results as given in PMC2494773 (American Journal of Physiology. Heart and Circulatory …, 2008).

B1: peroxiredoxin 1 (Prdx1), rat heart (natural protein, rat (endogenous in heart), UniProt Q63716 1-199, looked up)
chain: MSSGNAKIGHPAPSFKATAVMPDGQFKDISLSDYKGKYVVFFFYPLDFTFVCPTEIIAFSDRAEEFKKLNCQVIGASVDSHFCHLAWINTPKKQGGLGPMNIPLVSDPKRTIAQDYGVLKADEGISFRGLFIIDDKGILRQITINDLPVGRSVDEILRLVQAFQFTDKHGEVCPAGWKPGSDTIKPDVNKSKEYFSKQK
B2: peroxiredoxin 2 (Prdx2), rat heart (natural protein, rat (endogenous in heart), UniProt P35704 1-198, looked up)
chain: MASGNAHIGKPAPDFTGTAVVDGAFKEIKLSDYRGKYVVLFFYPLDFTFVCPTEIIAFSDHAEDFRKLGCEVLGVSVDSQFTHLAWINTPRKEGGLGPLNIPLLADVTKSLSQNYGVLKNDEGIAYRGLFIIDAKGVLRQITVNDLPVGRSVDEALRLVQAFQYTDEHGEVCPAGWKPGSDTIKPNVDDSKEYFSKHN

What was measured:
[1] = target: the molecule itself; assay: non-reducing SDS-PAGE and immunoblot
SEC = target: the molecule itself; assay: SEC

Protein	stoichiometry N [1]	stoichiometry N (SEC)
B1	2	–
B2	2	10
